The text below walks through data of PMC5681985, “Conserved Molecular Mechanism of TyrA Dehydrogenase Substrate Specificity Underlying Alternative Tyrosine Biosynthetic Pathways in Plants and Microbes” (Frontiers in Molecular Biosciences, 2017).

In one data set the target is T1, OiTyrA (OiTyrAa) (Brucella intermedia, UniProt C4WNJ2).
T1 construct: gene OINT_2001142
In kind it is biochemical.

The test system of data set [1] is T2, O=C(O)C(=O)CC1(C(=O)O)C=CC(O)C=C1.
T2 construct: full-length, codon-optimized, N-terminal 6xHis tag (pET28a), E. coli Rosetta2 (DE3), HisTrap purified; monofunctional enzyme
In words: A340 reduced cofactor formation, Michaelis-Menten fit. Format: biochemical, Methanothrix harundinacea. To be noted: 25 mM HEPES pH 7.6, 50 mM KCl, 10% ethylene glycol. From the text: (§1) A340 reduced cofactor formation, Michaelis-Menten fit on MhTyrA (MhTyrAp)

Data set [2] relates to T3, N[C@@H](CC1(C(=O)O)C=CC(O)C=C1)C(=O)O.
T3 construct: full-length, codon-optimized, N-terminal 6xHis tag (pET28a), E. coli Rosetta2 (DE3), HisTrap purified; monofunctional enzyme
The data set is described as above. In kind it is biochemical, Methanothrix harundinacea. To be noted: 0.8 mM preferred cofactor (NADP+), 25 mM HEPES pH 7.6, 50 mM KCl, 10% ethylene glycol.
Source text: as §1

Substrate in data set [3]: N[C@@H](CC1(C(=O)O)C=CC(O)C=C1)C(=O)O
The description is as above. In kind it is biochemical, Sediminispirochaeta smaragdinae. As to conditions: 25 mM HEPES pH 7.6, 50 mM KCl, 10% ethylene glycol. From the text:
(§2) A340 reduced cofactor formation, Michaelis-Menten fit on SsTyrA (SsTyrAa)

Substrate in data set [4]: O=C(O)C(=O)CC1(C(=O)O)C=CC(O)C=C1
Described as above. Format: biochemical, Sediminispirochaeta smaragdinae. As to conditions: 0.8 mM preferred cofactor, 25 mM HEPES pH 7.6, 50 mM KCl, 10% ethylene glycol.
Source text: as §2

Setting [5] is: 0.8 mM preferred cofactor (NADP+).
Setting [6] is: 0.8 mM preferred cofactor (NAD+ slightly preferred).

T1 sequence (C4WNJ2 1-269 limits assumed): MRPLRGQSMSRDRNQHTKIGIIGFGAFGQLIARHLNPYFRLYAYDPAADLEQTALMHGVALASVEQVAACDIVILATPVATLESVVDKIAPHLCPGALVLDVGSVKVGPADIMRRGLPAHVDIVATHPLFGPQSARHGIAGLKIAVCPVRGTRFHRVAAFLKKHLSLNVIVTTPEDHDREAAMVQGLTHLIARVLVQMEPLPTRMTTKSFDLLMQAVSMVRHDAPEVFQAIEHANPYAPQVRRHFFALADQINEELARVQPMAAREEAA

For the molecule `NC(=O)c1ccc[n+]([C@@H]2O[C@H](COP(=O)(O)OP(=O)(O)OC[C@H]3O[C@@H](n4cnc5c(N)ncnc54)[C@H](O)[C@@H]3O)[C@@H](O)[C@H]2O)c1` [NAD^+], at OiTyrA (OiTyrAa), the “HPLC product assay, 45 min” value is given as “strongly preferred NAD^+ over NADP^+ cofactor”.
“MhTyrA (MhTyrAp) (Methanothrix harundinacea)”: in data set [1] (0.8 mM NADP+), the Km turned out to be 378 ± 20 µM, the kcat amounted to 2.44 ± 0.38 s⁻¹ and the kcat/Km is 6440 ± 540 M⁻¹ s⁻¹.
Turning to `N[C@@H](CC1(C(=O)O)C=CC(O)C=C1)C(=O)O` (some centres unmarked) [arogenate], the “HPLC product assay, 45 min” value on OiTyrA (OiTyrAa) is “E. coli cell lysate expressing OiTyrA had ADH but not PDH activity”.
In the case of “MhTyrA (MhTyrAp) (Methanothrix harundinacea; Q227E)”, in data set [2], the Km came to 3290 ± 220 µM, the kcat is 0.704 ± 0.03 s⁻¹ and the kcat/Km stood at 213 ± 50 M⁻¹ s⁻¹. In data set [1] (setting [5]), the Michaelis-Menten constant (Km) was determined as 2669 ± 320 µM, the kcat was determined as 0.285 ± 0.02 s⁻¹ and the kcat/Km amounted to 107 ± 40 M⁻¹ s⁻¹.

B1: SsTyrA (SsTyrAa) (Sediminispirochaeta smaragdinae DSM 11293) (protein)
chain: MVEHTVGIYGLGRFGSFWAKSLAASGLKVIGYNRSKRALPEGVVSGSETEVLSCNTLFYCVAISSFEEVLSRTAAKIGKHTLVFDTCSVKVEPVRTMERLLPQGCTFAGSHPMFGPDSASEGMDGLPMVLCPGRDDEGKVDFWRHHFSKMGLRVIEITADRHDKEAAYTQGITHVVGRILGELDLHESEIATSGYKRLLQVREQTCNDPLQLFIDLQRYNPYTHGMRMELTSALEQIMTLFAQADLPPDRP
notes: full-length, codon-optimized, N-terminal 6xHis tag (pET28a), E. coli Rosetta2 (DE3), HisTrap purified
As for B1, in data set [3] (setting [6]), the Michaelis-Menten constant (Km) is 901 ± 150 µM, the kcat was determined as 3.44 ± 0.31 s⁻¹ and the kcat/Km is 4030 ± 1010 M⁻¹ s⁻¹.

B2: SsTyrA (SsTyrAa) (Sediminispirochaeta smaragdinae DSM 11293; D208N) (protein)
chain: MVEHTVGIYGLGRFGSFWAKSLAASGLKVIGYNRSKRALPEGVVSGSETEVLSCNTLFYCVAISSFEEVLSRTAAKIGKHTLVFDTCSVKVEPVRTMERLLPQGCTFAGSHPMFGPDSASEGMDGLPMVLCPGRDDEGKVDFWRHHFSKMGLRVIEITADRHDKEAAYTQGITHVVGRILGELDLHESEIATSGYKRLLQVREQTCNNPLQLFIDLQRYNPYTHGMRMELTSALEQIMTLFAQADLPPDRP
notes: as for B1
As for B2, in data set [3] (0.8 mM preferred cofactor), the Michaelis constant (Km) stood at 847 ± 160 µM, the kcat stood at 0.45 ± 0.01 s⁻¹ and the kcat/Km stood at 568 ± 140 M⁻¹ s⁻¹. Moreover, in data set [4], the Km amounted to 1742 ± 630 µM, the kcat worked out at 0.863 ± 0.12 s⁻¹ and the kcat/Km was 587 ± 400 M⁻¹ s⁻¹.
